Paper PMC6637133, “SPRTN protease and checkpoint kinase 1 cross-activation loop safeguards DNA replication” (Nature Communications, 2019)

Biological target: T1, recombinant His6-tagged SPRTN (human, UniProt Q9H040 1-489)
T1 construct: SPRTN metalloprotease, human; The methods of this pull-down are not described; also called purified SPRTN; source: recombinant, purified in house from E. coli
T1 sequence (looked up): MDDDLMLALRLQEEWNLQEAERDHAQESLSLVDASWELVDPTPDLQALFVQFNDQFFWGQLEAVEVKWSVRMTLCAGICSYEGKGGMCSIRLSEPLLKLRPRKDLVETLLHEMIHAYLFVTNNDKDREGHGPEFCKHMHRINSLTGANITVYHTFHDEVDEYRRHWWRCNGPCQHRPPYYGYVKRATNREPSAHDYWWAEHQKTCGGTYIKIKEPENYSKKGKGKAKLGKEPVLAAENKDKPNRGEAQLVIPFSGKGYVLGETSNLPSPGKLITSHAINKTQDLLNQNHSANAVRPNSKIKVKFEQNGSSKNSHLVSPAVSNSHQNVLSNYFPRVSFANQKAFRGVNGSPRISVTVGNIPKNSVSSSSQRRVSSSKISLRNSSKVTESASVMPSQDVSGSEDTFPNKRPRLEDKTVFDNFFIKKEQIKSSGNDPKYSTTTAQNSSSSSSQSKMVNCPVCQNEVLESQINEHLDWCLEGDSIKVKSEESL
Assay: pull-down; recombinant His6-tagged SPRTN held on Ni-NTA beads, purified CHK1 co-precipitated; immunoblot
Conditions: both partners purified

binding result: binds
B1: Purified CHK1 (enzyme, human, UniProt O14757 1-476, looked up)
chain: MAVPFVEDWDLVQTLGEGAYGEVQLAVNRVTEEAVAVKIVDMKRAVDCPENIKKEICINKMLNHENVVKFYGHRREGNIQYLFLEYCSGGELFDRIEPDIGMPEPDAQRFFHQLMAGVVYLHGIGITHRDIKPENLLLDERDNLKISDFGLATVFRYNNRERLLNKMCGTLPYVAPELLKRREFHAEPVDVWSCGIVLTAMLAGELPWDQPSDSCQEYSDWKEKKTYLNPWKKIDSAPLALLHKILVENPSARITIPDIKKDRWYNKPLKKGAKRPRVTSGGVSESPSGFSKHIQSNLDFSPVNSASSEENVKYSSSQPEPRTGLSLWDTSPSYIDKLVQGISFSQPTCPDHMLLNSQLLGTPGSSQNPWQRLVKRMTRFFTKLDADKSYQCLKETCEKLGYQWKKSCMNQVTISTTDRRNNKLIFKVNLLEMDDKILVDFRLSKGDGLEFKRHFLKIKGKLIDIVSSQKIWLPAT
notes: checkpoint kinase 1 (CHK1), human
